The target of data set [1] is T1, DVU1419 response regulator (Desulfovibrio vulgaris Hildenborough) (UniProt Q72C65).
T1 sequence: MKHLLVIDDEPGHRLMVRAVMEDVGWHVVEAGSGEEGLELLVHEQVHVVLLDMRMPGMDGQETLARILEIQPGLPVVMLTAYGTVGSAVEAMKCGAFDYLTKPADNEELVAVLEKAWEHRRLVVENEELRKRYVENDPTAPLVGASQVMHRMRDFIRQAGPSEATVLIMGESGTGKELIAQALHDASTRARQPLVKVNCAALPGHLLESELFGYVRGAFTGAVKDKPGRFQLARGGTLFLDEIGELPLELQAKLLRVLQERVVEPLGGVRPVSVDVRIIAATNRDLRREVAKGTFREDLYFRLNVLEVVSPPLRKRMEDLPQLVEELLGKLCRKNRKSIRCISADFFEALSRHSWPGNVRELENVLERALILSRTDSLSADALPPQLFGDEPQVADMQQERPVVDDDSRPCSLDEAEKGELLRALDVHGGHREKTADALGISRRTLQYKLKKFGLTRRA
Description: EMSA. Conditions: EMSA: 10 mM Tris-HCl pH 7.5, 1 mM DTT, 50 mM KCl, 5 mM MgCl2, 25% glycerol, 1 ug/ml poly dI-dC, 50-100 fmol biotin-DNA, 25-30 C, 20 min. A general note: Mobility shift assays separate free from complexed probe on a gel.

Data set [2] deals with T2, DVU0946 response regulator (Desulfovibrio vulgaris Hildenborough, UniProt Q72DI3 1-476).
T2 sequence: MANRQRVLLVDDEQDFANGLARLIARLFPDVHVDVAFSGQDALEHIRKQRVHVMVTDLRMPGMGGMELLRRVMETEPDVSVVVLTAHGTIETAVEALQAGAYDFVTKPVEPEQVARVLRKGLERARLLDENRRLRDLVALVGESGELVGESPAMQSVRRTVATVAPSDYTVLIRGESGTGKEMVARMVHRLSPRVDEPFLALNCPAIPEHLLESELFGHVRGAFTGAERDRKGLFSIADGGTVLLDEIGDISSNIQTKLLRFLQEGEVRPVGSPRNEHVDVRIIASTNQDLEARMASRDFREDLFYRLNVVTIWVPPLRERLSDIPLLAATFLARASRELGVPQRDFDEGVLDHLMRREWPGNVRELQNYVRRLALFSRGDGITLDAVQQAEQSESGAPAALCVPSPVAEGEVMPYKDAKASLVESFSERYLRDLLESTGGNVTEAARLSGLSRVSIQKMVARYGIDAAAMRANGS
Description: EMSA; EMSA: 10 mM Tris-HCl pH 7.5, 1 mM DTT, 50 mM KCl, 5 mM MgCl2, 25% glycerol, 1 ug/ml poly dI-dC, 50-100 fmol biotin-DNA, 25-30 C, 20 min. To be noted: protein: recombinant; tags: C-terminal V5-6xHis; chain copies: 2; label: 5'-biotin top strand; blunt.

The target of data set [3] is T3, DVU0539 response regulator (Desulfovibrio vulgaris Hildenborough, UniProt Q72EN8 1-467).
T3 sequence: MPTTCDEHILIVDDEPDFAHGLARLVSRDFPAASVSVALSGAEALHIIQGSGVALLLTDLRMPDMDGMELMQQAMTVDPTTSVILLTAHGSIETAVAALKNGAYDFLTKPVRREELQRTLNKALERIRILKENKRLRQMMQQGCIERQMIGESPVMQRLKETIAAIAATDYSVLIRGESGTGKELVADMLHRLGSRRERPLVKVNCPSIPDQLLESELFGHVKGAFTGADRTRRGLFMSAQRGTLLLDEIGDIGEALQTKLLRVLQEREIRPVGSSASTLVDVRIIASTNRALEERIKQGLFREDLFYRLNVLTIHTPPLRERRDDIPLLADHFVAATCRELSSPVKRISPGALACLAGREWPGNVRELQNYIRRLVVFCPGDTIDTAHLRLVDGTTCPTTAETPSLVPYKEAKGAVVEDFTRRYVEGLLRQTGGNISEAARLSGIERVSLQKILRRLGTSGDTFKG
The description is as above. Conditions: protein: recombinant; tags: C-terminal V5-6xHis; chain copies: 2; label: 5'-biotin top strand; blunt.

Data set [4] concerns the target T4, DVU0679 response regulator (Desulfovibrio vulgaris Hildenborough, UniProt Q72E99 1-488).
T4 sequence: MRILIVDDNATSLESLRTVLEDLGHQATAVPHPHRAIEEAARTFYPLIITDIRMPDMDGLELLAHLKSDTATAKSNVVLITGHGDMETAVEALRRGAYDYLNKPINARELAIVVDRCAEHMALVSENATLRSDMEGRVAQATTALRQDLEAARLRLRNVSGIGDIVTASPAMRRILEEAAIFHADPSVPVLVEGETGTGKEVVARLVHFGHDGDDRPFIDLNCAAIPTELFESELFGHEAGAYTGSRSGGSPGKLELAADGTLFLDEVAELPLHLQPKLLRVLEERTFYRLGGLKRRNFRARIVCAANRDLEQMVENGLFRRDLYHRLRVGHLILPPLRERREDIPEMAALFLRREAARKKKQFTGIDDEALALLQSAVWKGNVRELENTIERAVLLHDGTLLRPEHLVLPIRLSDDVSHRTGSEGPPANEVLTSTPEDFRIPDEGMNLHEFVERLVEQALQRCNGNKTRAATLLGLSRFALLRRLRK
The description is as above. To be noted: protein: recombinant; tags: C-terminal V5-6xHis; chain copies: 2; label: 5'-biotin top strand; blunt.

For data set [5], the target named is T5, DVU1419 response regulator (Desulfovibrio vulgaris Hildenborough, UniProt Q72C65 1-459).
T5 sequence: T1 sequence
The data set is described as above. Conditions: protein: recombinant; tags: C-terminal V5-6xHis; chain copies: 2; label: 5'-biotin top strand; blunt.

Data set [6] concerns the target T6, DVU2394 response regulator (Desulfovibrio vulgaris Hildenborough, UniProt Q729F7 1-463).
T6 sequence: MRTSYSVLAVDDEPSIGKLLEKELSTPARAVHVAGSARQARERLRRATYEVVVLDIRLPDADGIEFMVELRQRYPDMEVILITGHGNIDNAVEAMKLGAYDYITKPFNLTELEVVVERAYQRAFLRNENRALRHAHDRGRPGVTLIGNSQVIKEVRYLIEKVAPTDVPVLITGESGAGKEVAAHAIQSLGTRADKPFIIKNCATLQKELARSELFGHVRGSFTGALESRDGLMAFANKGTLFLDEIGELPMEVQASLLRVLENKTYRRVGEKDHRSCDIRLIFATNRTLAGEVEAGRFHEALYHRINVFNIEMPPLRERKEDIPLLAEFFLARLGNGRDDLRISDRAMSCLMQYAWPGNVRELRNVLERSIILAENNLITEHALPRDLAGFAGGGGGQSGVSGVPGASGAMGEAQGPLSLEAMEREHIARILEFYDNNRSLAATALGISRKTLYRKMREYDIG
The data set can be described thus: EMSA; 10 mM Tris-HCl pH 7.5, 1 mM DTT, 50 mM KCl, 5 mM MgCl2, 25% glycerol, 1 ug/ml poly dI-dC, 50-100 fmol biotinylated DNA, 25-30 C, 20 min. Conditions: protein: recombinant; tags: C-terminal V5-6xHis; chain copies: 2; label: 5'-biotin top strand.

For data set [7], the target named is T7, DVU1063 response regulator (Desulfovibrio vulgaris Hildenborough, UniProt Q72D66 1-479).
T7 sequence: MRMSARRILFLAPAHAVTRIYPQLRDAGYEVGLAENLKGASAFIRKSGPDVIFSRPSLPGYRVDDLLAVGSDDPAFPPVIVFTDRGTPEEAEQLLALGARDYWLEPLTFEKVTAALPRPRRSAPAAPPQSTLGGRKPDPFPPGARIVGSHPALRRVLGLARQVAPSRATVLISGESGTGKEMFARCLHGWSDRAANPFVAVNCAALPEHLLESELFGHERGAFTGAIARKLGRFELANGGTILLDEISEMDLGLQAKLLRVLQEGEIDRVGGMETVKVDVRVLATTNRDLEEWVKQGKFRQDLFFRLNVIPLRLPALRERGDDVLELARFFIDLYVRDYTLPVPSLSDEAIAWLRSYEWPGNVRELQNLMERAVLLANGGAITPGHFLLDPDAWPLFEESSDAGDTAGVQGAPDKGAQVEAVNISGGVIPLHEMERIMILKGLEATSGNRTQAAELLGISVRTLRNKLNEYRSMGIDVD
Description: EMSA; EMSA: 10 mM Tris-HCl pH 7.5, 1 mM DTT, 50 mM KCl, 5 mM MgCl2, 25% glycerol, 1 ug/ml poly dI-dC, 50-100 fmol biotin-DNA, 25-30 C, 20 min. Conditions: protein: recombinant; tags: C-terminal V5-6xHis; chain copies: 2; label: 5'-biotin top strand; blunt.

Data set [8] has as its target T8, DVU0118 response regulator (Desulfovibrio vulgaris Hildenborough, UniProt Q72FU5 1-454).
T8 sequence: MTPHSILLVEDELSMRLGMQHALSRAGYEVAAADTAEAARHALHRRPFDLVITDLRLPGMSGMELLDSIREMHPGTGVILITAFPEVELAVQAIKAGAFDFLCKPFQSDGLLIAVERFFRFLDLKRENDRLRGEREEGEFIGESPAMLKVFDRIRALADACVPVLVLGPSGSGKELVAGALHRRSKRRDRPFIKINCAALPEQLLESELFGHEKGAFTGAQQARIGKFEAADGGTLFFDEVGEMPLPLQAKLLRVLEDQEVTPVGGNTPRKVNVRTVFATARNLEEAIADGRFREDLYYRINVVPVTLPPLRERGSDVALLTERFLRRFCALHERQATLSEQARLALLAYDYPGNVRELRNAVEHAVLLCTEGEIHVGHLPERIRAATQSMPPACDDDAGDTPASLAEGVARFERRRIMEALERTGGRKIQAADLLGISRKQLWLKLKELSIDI
The data set is described as above. Conditions: protein: recombinant; tags: C-terminal V5-6xHis; chain copies: 2; label: 5'-biotin top strand; blunt.

Data set [9] has as its target T8, DVU0118 response regulator. The data set can be described thus: EMSA; 10 mM Tris-HCl pH 7.5, 1 mM DTT, 50 mM KCl, 5 mM MgCl2, 25% glycerol, 1 ug/ml poly dI-dC, 50-100 fmol biotinylated DNA, 25-30 C, 20 min. To be noted: protein: recombinant; tags: C-terminal V5-6xHis; chain copies: 2; label: 5'-biotin top strand.

Positions count from the first letter of the chain named.

In the case of “GTCGGCGATTTCCATGAAGACTCCGGTGGTGTCTGGCGGGACATGAAAGAACTGTGCCGAAGGGTGACACCCCGGCAGATGCTGATGCCGGGTGCGCCACCACAGGCCAGCCCTTGCACCATGTCGCATCGCAAGGTCTCTGCGTTGCCTCGCAACGCGGTGCCGTGCACCATGAATGTGCAAACGATGGCACACAACGCCACGGCGTGCAATAAGATGCACACCACCTGCACATATCAAGCCTCATGTGAAGGAAAAGGACGGC (double strand) [DVU1418 upstream]”, the binding result in data set [1] is listed as “binds”.

B1: DVU0943 motif wt (dsDNA)
DNA 1: AGGTTTACGATGCAAAGTGATGTTTGCAGCTTGCCGAG
DNA 2: CTCGGCAAGCTGCAAACATCACTTTGCATCGTAAACCT
As for B1, the binding result in [2] and in data set [3] was “binds” throughout.

B2: DVU0677 motif wt (dsDNA)
DNA 1: AATCGCACGCCGTGCGTATTCGCACGTGCTTTTCCG
DNA 2: CGGAAAAGCACGTGCGAATACGCACGGCGTGCGATT
As to B2, in data set [4], the binding result is recorded as “binds”.

B3: DVU1418 motif wt (dsDNA)
DNA 1: GCCGTGGCGTTGTGTGCCATCGTTTGCACATTCATGGTGC
DNA 2: GCACCATGAATGTGCAAACGATGGCACACAACGCCACGGC
Take B3: the binding result in [5] is given as “binds”.

B4: DVU1418 motif mut (dsDNA)
DNA 1: B3 DNA 1 with G14A, A28T, A30G
DNA 2: B3 DNA 2 with T11C, T13A, C27T
Turning to B4, the binding result in [5] was “no binding”.

B5: DVU2405 motif mut (dsDNA)
DNA 1: TCCAGCCATCTATGTTTTTTCGTGACTATGTTGAAGTTCGACCCAA
DNA 2: TTGGGTCGAACTTCAACATAGTCACGAAAAAACATAGATGGCTGGA
In the case of B5, the binding result in data set [6] is reported as “no binding”.

B6: DVU1032 motif wt (dsDNA)
DNA 1: GGCATGGTCGGGCGGCAGTTTTTTCCTGTATCCTG
DNA 2: CAGGATACAGGAAAAAACTGCCGCCCGACCATGCC
Turning to B6, the binding result in [7] is “binds”.

B7: DVU0123 motif wt (dsDNA)
DNA 1: CGAACAGGAACATGTTCCCTCAAAGGAACATCGTTGGTGGAA
DNA 2: TTCCACCAACGATGTTCCTTTGAGGGAACATGTTCCTGTTCG
B7: the binding result in [8] is reported as “binds”.

B8: DVU0123 motif mut (dsDNA)
DNA 1: B7 DNA 1 with A12T, G14C, C17G, A27T, A30G
DNA 2: B7 DNA 2 with T13C, T16A, G26C, C29G, T31A
As to B8, the binding result in [9] was “no binding”.

These data come from article PMC3333781, “Systematic mapping of two component response regulators to gene targets in a model sulfate reducing bacterium”.
